# Reference: the RNAGym collection of RNA variant scans (doi:10.1073/pnas.2313332121)
# B1: TPR t1 (parent)
# chain: GACCAAUCUGCCCUCAGAGCUCGAGAACAUCUUCGGAUGCAGAGGAGGCAGGCUUCGGUGGCGCGAUAGCGCCAACGUCCUCAACCUCCAAUGCAUCCCACCACAUGAUGAUGCCUGAAGAGCCUUGGUUUUUUG
# Variants of: B1
# Assay: polymerase ribozyme fitness, log enrichment relative to wild type (log ratio); higher = more active; in vitro selection for triplet polymerase activity
# How it was run: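 To select mutant libraries of each subunit of a heterodimeric triplet polymerase ribozyme, built by PCR and transcribed, each was annealed with a biotinylated primer, partner subunit and triplets, then incubated frozen at −7 °C. Extended constructs were gel-excised, captured on streptavidin beads and amplified by RT-PCR, in one round carried out in triplicate. Illumina sequencing of input and output libraries kept genotypes with ≥10 input reads and ≥1 read per output. Fitness is the base-2 logarithm of genotype enrichment relative to wild-type enrichment, from inverse-variance-weighted replicate averages.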
row,Variant,polymerase ribozyme fitness (log ratio)
1,G57C U106A U112A,1.17
2,G60A C123A,0.222
3,C56G A103U U109G,-6.5
4,G57U U129C,-1.6
5,G60A G93C U132A,-1.25
6,C56U G128C,-2.63
7,C56G G117U,-2.83
8,U59A A90G C123U,1.4
9,G60A C89A,-1.99
10,C56U C72G,-0.66
11,C56U U81C,0.0987
12,C56U G69U G120U,-1.89
13,G57U C72U G110C,-4.22
14,G60A C101A U106A A119U C123U,-4.23
15,C56G U116C,-0.924
16,C56U G93U U116C,-1.7
17,G58A G63U A118G,-0.392
18,G57U C98U G110A U112G,-5.09
19,C56G G58A G77A,0.427
20,C56G A74U C124U,0.777
21,G60A A90G U96C C101G,-1.58

row,Variant,polymerase ribozyme fitness (log ratio)
1,C56U C72A A100C C104U A121G,1.21
2,C56G G69U C82U A95U G127U,-3.08
3,U59A G128A,-1.96
4,G60A G113U,-1.94
5,G60A G113A,-0.894
6,C56U C98U,-0.841
7,G57A C76A A105C,-4.35
8,C56U G57U C70A,-2.65
9,G57U A95U A121U C124U,1.18
10,G60A C115U,-1.41
11,U59A U87A G113U A118G,-4.7
12,G57U C104A U106C U125A U131C,-1.82
13,C56U A111G,0.705
14,G58C U59G C86G,-0.556
15,G60A G93U,-1.61
16,C56U A100U U129A,-1.49
17,G57U G71A C104A U106C U125A U131C,-3.71
18,C56G G69C A83C C104U G135A,-4.55
19,G60A C104A G113U,-5.38
20,C56G G61C A95G A111U,-6.34
21,G57C U125A,-0.636

row,Variant,polymerase ribozyme fitness (log ratio)
1,C56G C94U,-0.644
2,G57U G128A,-1.33
3,U59G C86U A95U C115A C123U,-2.76
4,U59A C70U U96C,-1.25
5,G58A A103G,-4.88
6,G57A C62G,-3.37
7,C56U U106A G120A,0.351
8,G57U U106G G128C,-3.98
9,C56U A66C U78A,-2.84
10,C56U C86G A111U U129G,-5.47
11,G58C C115G C123A G135A,-3.89
12,C56U G135C,0.59
13,C56U G135A,-0.436
14,C56U G61U,-2.88
15,C56U C73G G122A U130A,-2.91
16,C56U U78C U81G C94U,-1.62
17,G58U C70G U106C C124U U130A,-2.53
18,G58A C82U C115A C124U,-0.385
19,G58C C101U G122A,-1.1
20,G58A G71A C89A C123A,-3.72
21,C56U C94U,0.204

row,Variant,polymerase ribozyme fitness (log ratio)
1,G60A G93U U112C G113U,-5.49
2,G58U U81A C124A,1.33
3,G58A C124A,2.39
4,G58A C79A,-1
5,C56U G110U A121U,-1.11
6,C56G U109C,-3.23
7,G57C G63A G69U,-1.39
8,C56G U92G U96A G122A,-4.6
9,G60A G128A,-2.27
10,C56G A74U G120U G127A,-1.98
11,C56G C89A A105G C114U,-5.42
12,G60A G110A U112C,-1.67
13,G58C U112C C114U,-1.68
14,C56G G93A A95G G113A G120C,-3.38
15,U59A C70U U87A,-1.83
16,G58U C73A,-0.295
17,C56G A91U A111C,-2.73
18,G57A C72U G127U,-2.52
19,G58C C85U C123G U132A,1.38
20,C56U G107U,-4.6
21,C56U G107A,-4.63
